This is an account of results in US20040248789A1 (TIANJIN FUSOGEN BIOTECH, published 2004).

Assay [1] addresses gp41 N-peptide (35-70). Put plainly: CD thermal melting of the peptide complex, 20-95° C.
The target in assay [2] is gp41 N-peptide (35-70). Put plainly: Superdex 75 gel filtration; free Fusonex elutes at 17.3 ml.
Assay [3] addresses HIV-1 gp160HXB (HIV-1, UniProt P04578 512-856). Kind of assay: cell-based or functional assay.

gp41 N-peptide (35-70), sequence (P04578 546-581): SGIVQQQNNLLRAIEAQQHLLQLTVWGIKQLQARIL
HIV-1 gp160HXB, sequence (P04578 512-856): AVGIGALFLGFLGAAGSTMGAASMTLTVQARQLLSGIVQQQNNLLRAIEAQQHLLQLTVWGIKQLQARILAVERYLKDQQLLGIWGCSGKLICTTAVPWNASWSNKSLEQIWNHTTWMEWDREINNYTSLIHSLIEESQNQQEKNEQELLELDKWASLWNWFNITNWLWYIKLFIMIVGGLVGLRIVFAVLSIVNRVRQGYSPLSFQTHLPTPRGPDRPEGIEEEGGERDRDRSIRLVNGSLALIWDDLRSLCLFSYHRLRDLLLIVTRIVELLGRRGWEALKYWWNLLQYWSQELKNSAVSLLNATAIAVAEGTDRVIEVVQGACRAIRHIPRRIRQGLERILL

Regarding Fusonex (peptide), the 50% melting temperature of the complex in assay [1] stood at 70 ° C. Moreover, the elution peak of the complex in assay [2] was found to be 13.2 mL.

T-20 (peptide): the 50% melting temperature of the complex in assay [1] was found to be 51 ° C.

As to Ac-SWETWEREIENYTKQIYKILEESQEQQDRNEKDLLE-NH2 [Fusonex], in assay [3], the “IC50, cell-cell fusion induced by HIV-1 gp160HXB (luciferase reporter)” value is 1.2 nM and the “IC50 relative to T-20, cell-cell fusion induced by HIV-1 gp160HXB” value was ~0.05 fold of T-20.
